For orientation: stoichiometry N means a count of units in the complex or per binding partner.

Here are results for 1 substance from paper PMC11623648.

For the assay, the target named is Integrin αIIbβ3 (human (endogenous in platelets)) (UniProt P05106). The assay can be described thus: cryo-EM structure.

In the case of “Integrin αIIbβ3 (from UniProt P05106 27-788) (complex)”, the stoichiometry N turned out to be 2.
